This is an account of results in patent publication US20230133141A1 (HONG KONG POLYTECHNIC UNIVERSITY, published 2023).

Non-standard residues stand in square brackets, D forms with d.

The target of assay [1] is T1, KLGFFKR motif-deficient (dm) ITGA2 (UniProt P17301 30-1181).
T1 construct: whole, on cells; Deletion of the seven residues KLGFFKR; also called A2dm; motif-deficient ITGA2
T1 sequence (looked up): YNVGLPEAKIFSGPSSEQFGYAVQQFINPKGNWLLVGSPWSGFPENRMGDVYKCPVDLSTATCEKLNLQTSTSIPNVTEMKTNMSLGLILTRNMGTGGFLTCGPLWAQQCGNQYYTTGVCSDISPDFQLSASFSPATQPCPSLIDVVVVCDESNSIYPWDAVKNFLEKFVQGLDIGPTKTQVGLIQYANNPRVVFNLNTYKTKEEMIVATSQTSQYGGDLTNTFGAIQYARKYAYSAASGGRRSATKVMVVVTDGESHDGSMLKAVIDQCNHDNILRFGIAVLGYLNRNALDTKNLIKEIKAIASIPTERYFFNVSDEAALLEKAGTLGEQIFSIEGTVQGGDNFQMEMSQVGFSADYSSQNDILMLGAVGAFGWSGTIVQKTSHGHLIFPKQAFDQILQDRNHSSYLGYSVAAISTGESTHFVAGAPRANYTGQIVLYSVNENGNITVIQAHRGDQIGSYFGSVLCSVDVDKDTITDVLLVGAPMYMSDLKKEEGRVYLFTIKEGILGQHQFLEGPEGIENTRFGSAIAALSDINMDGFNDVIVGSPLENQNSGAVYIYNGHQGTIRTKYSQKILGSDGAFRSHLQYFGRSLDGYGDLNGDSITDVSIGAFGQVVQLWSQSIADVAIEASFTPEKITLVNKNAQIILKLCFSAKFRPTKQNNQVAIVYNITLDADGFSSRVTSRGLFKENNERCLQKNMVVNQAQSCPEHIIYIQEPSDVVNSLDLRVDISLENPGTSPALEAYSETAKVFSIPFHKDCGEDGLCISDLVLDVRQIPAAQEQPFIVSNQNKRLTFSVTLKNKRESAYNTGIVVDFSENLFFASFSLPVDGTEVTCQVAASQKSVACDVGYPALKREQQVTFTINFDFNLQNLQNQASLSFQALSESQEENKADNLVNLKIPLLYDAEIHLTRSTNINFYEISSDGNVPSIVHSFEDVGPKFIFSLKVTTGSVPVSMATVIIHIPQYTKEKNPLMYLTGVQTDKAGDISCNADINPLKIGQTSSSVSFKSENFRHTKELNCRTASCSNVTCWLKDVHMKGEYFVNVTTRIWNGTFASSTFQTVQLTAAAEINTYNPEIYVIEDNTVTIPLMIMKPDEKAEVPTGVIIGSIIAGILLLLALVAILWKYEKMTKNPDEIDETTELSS
Nature of the assay: co-immunoprecipitation with anti-CRT antibody, Western blot.

The target in assay [2] is T2, full-length ITGA2 (UniProt P17301 30-1181, limits assumed).
T2 construct: whole, on cells; Whole protein expressed in cells; cells were lysed for co-immunoprecipitation; Any tag of the pCMV-ITGA2-CH plasmid is not described; also called integrin ITGA2
T2 sequence (looked up): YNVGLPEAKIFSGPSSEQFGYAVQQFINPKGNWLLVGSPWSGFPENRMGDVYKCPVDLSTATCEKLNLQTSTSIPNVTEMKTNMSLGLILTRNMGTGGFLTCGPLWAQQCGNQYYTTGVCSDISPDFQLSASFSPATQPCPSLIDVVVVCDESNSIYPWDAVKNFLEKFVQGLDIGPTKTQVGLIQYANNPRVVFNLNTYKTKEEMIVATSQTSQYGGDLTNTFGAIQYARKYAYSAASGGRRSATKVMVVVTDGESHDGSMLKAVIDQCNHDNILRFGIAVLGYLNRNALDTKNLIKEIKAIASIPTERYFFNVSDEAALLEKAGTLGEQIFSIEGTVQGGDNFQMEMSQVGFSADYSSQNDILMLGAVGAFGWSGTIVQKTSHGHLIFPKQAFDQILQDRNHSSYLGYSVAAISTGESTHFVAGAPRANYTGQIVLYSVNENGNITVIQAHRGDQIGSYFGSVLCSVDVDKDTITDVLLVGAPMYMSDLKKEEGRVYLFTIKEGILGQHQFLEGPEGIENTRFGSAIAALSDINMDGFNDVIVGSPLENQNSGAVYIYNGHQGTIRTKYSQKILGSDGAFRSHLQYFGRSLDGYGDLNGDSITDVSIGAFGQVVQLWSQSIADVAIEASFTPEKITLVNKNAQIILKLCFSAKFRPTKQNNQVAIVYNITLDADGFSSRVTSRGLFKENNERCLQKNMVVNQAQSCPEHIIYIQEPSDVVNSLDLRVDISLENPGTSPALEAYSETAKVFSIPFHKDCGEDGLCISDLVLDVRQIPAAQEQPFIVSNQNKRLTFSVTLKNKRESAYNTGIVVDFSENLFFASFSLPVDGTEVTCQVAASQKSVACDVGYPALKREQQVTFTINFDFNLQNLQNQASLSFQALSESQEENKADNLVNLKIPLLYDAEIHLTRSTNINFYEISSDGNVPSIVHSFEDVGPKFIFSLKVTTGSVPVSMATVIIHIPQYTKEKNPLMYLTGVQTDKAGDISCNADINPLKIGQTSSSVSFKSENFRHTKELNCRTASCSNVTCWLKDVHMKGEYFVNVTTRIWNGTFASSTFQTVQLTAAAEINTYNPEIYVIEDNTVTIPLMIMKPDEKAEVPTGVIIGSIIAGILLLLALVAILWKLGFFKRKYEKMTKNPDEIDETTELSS
Nature of the assay: co-immunoprecipitation with anti-CRT antibody from cell lysate, Western blot. For orientation: In western blotting, separated proteins are transferred to a membrane and probed.

In assay [3] the target is T2, full-length ITGA2. The assay is described as follows: cell-based or functional assay.

B1: calreticulin (CRT) (other, UniProt P27797 18-417, looked up)
chain: EPAVYFKEQFLDGDGWTSRWIESKHKSDFGKFVLSSGKFYGDEEKDKGLQTSQDARFYALSASFEPFSNKGQTLVVQFTVKHEQNIDCGGGYVKLFPNSLDQTDMHGDSEYNIMFGPDICGPGTKKVHVIFNYKGKNVLINKDIRCKDDEFTHLYTLIVRPDNTYEVKIDNSQVESGSLEDDWDFLPPKKIKDPDASKPEDWDERAKIDDPTDSKPEDWDKPEHIPDPDAKKPEDWDEEMDGEWEPPVIQNPEYKGEWKPRQIDNPDYKGTWIHPEIDNPEYSPDPSIYAYDNFGVLGLDLWQVKSGTIFDNFLITNDEAYAEEFGNETWGVTKAAEKQMKDKQDEEQRLKEEEEDKKRKEEEEAEDKEDDEDKDEDEEDEEDKEEDEEEDVPGQAKDEL
notes: Endogenous protein in cell lysate; pulled down with anti-CRT antibody
For B1, the binding result in assay [1] is on record as “no binding”; with full-length ITGA2 [2], “binds”.

B2: DRI-TAT-SP peptide (D-retro-inverso form of TAT-SP) (peptide)
peptide: Ac-[dR][dE][dP][dV][dC][dL][dC][dR]G[dI][dV][dW][dR][dQ][dV][dA][dP][dP][dF]G[dL][dE][dS][dR][dR][dR][dQ][dR][dR][dK][dK][dR]-NH2
modifications: cysteine pairing not given here
For the molecule B2, the “EC50 of reversing chemoresistance in BCSCs in the presence of DOX (MTS assay)” value with full-length ITGA2 [3] turned out to be 2300 nM.
